Data from patent publication US20100278752A1 (RHODE ISLAND BOARD OF GOVERNORS FOR HIGHER EDUCATION, published 2010).

B1: Sialostatin L2 (other)
chain: MELALRGGYRERSNQDDPEYLELAHYATSTWSAQQPGKTHFDTVVEVLKVETQTVAGTNYRLTLKVAESTCELTSTYNKDTCQANANAAQRTCTTVIYRNLQGEKSISSFECAAA
notes: Recombinant protein overexpressed in bacteria; also called second salivary cystatin; novel cystatin
B2: Sialostatin L (other)
chain: MTGVFGGYSERANHQANPEFLNLAHYATSTWSAQQPGKTHFDTVAEVVKVETQVVAGTNYRLTLKVAESTCELTSTYNKDTCLPKADAAHRTCTTVVFENLQGDKSVSPFECEAA

Experiments:
Cathepsin L [1] = target: T1, Cathepsin L (Homo sapiens (Human), UniProt P07711 114-333); assay: cell-based or functional assay
Cathepsin V = assay: cell-based or functional assay
Cathepsin S = assay: cell-based or functional assay
Cathepsin C = assay: cell-based or functional assay
Cathepsin L [2] = target: T1, Cathepsin L; assay: enzyme kinetics for tight binding inhibition: Morrison's equation, Ki* plotted against substrate concentration, y intercept of the linear regression
Cathepsin X/Z/P = Cathepsin X/Z/P (Homo sapiens (Human), UniProt Q9UBR2 62-303); assay: cell-based or functional assay
Cathepsin X/Z/P, sequence (Q9UBR2 62-303 limits assumed, form in doubt): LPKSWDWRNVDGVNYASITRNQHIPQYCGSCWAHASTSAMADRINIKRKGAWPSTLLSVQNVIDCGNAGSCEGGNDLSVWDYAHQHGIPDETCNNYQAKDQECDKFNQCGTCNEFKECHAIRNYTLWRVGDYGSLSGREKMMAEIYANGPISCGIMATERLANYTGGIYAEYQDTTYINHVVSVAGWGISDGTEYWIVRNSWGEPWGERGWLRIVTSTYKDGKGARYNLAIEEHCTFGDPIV

T1 sequence (P07711 114-333 limits assumed, form in doubt): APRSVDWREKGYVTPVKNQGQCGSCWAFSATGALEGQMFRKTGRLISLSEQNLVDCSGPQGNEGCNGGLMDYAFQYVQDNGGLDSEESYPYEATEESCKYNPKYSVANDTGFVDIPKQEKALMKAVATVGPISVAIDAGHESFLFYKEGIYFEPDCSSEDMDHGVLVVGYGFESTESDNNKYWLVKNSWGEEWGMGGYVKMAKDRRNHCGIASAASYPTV

| Binder | IC50 (inhibitor concentration at which 50% inhibition of enzymatic activity is achieved); 20 pM enzyme (Cathepsin L [1]) [pM] | IC50 (inhibitor concentration at which 50% inhibition of enzymatic activity is achieved); 1 nM enzyme (Cathepsin V) [nM] | IC50 (inhibitor concentration at which 50% inhibition of enzymatic activity is achieved); 60 pM enzyme (Cathepsin S) [nM] | IC50 (inhibitor concentration at which 50% inhibition of enzymatic activity is achieved); 10 nM enzyme (Cathepsin C) [nM] | Ki (Cathepsin L [2]) [nM] | IC50 (inhibitor concentration at which 50% inhibition of enzymatic activity is achieved); 16 nM enzyme (Cathepsin X/Z/P) [nM] |
| --- | --- | --- | --- | --- | --- | --- |
| B1 | 70.9 | 28.8 | 378 | 740 | 0.0655 | – |
| B2 | 126 | 24.1 | 0.7 | 52.2 | – | 937 |
